According to patent US8889620B2, “Pharmaceutical compositions comprising peptide antagonists of vascular endothelial growth factor” (Children's Medical Center Corporation, priority 1997, dated 2014):
“Also recorded” adds a separate entry of the source. Where no end group is shown, it is not given here.

Assays:
[1] = target: T1, KDR/Flk-1 and VEGF165R on HUVEC (Homo sapiens, UniProt O14786); assay: Inhibition of 125I-VEGF165 binding to HUVEC
T1 construct: HUVEC, which express both KDR/Flk-1 and VEGF165R; endogenous in cells; host or cells: HUVEC (ATCC)
T1 sequence (O14786 22-923): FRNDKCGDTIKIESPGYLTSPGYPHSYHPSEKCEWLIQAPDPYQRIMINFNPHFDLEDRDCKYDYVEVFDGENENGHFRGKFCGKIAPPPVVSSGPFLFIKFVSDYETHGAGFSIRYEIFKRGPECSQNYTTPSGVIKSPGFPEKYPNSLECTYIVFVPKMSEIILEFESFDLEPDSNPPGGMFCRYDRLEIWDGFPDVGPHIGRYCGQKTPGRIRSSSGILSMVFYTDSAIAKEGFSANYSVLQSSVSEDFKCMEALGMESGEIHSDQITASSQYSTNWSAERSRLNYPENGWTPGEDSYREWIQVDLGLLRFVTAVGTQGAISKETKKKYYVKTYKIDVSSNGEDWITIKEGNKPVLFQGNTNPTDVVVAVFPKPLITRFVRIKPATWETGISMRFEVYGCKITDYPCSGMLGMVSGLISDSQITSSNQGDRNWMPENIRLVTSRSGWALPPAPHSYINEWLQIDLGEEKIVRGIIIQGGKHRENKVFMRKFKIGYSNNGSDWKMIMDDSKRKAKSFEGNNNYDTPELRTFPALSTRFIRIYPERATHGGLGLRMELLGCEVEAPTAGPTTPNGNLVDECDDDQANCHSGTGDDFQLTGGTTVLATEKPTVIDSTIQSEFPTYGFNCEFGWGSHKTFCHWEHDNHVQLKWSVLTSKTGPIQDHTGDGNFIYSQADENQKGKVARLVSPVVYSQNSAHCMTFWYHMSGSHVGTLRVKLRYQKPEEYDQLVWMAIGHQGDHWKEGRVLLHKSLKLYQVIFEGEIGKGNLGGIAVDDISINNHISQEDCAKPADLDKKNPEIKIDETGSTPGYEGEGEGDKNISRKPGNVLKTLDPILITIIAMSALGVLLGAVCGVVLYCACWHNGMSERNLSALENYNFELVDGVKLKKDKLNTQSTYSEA
Method: (§1) FIGS. 3A-3C. Inhibition of ^125I-VEGF165 binding to HUVEC, MDA MB 231 cells, and PAE-KDR cells by GST-EX 7+8. ^125I-VEGF165 (5 ng,/ml) was bound to subconfluent cultures of HUVEC (3A), MDA MB 23 1 cells (3B), and PAE-KDR cells (3C) in 48-well dishes in the presence of increasing amounts of GST-Ex 7+8 (closed 20 square) or control GST protein (open squares). At the end of a 2-h incubation, the cells were washed and lysed, and the cell-associated radioactivity was determined with a γ-counter. The counts obtained are expressed as the percentage of the counts obtained in the presence of PBS without addition of GST or fusion protein.
FIGS. 5A and 5B. Localization of a core inhibitory region within exon 7. GST-Ex 7 fusion proteins containing full-length exon 7-encoded domain or truncations at the N-terminal and C-terminal ends were prepared as described in the Examples. ^125I-VEGF165 (5 ng/ml) was bound to subconfluent HUVEC cultures as described in FIG. 3, in the presence of increasing concentrations of the GST fusion proteins. At the end of a 2-h incubation, the cells were washed and lysed, and the cell-associated radioactivity was determined with a y counter. The counts obtained are expressed as percentage of the counts obtained in the presence of PBS without fusion protein B, the amino acid sequences of VEGF exon 7 derivatives. These derivatives were prepared to contain the first cysteine residue of exon 8 at their C termini to keep an even number of cysteine residue. FIG. 5B discloses SEQ ID NO: 19.
(§2) Binding and cross-linking experiments using 125I-VEGF165 and 125I-VEGF121 were performed at described previously (Gitay-Goren, et al., J. Biol. Chem., 287, 6003-6096 (1992), Soker, et al., J: Biol. Chem., 271,5761-5767 (1996)). VEGF binding was quantified by measuring the cell-associated radioactivity in a y-counter (Beckman, Gamma 5500). The counts represent the average of three walls. All experiments were repeated at least three times, and similar results were obtained. 125I-VEGF cross-linked complexes were resolved by 6% SDS-PAGE, and the gels were exposed to a phosphor screen and scanned after 24 h by a PhosphorImager (Molecular Dynamics). Subsequently, the gels were exposed to x-ray film.

VEGF165R on 231 cells [2] = target: T2, VEGF165R on 231 cells (Homo sapiens, UniProt O14786); assay: Inhibition of 125I-VEGF165 binding to MDA-MB-231 (231) cells
T2 construct: to 231 cells which express only VEGF165R; endogenous in cells; host or cells: MDA-MB-231 (ATCC)
T2 sequence (O14786 22-923): as above
Method: as §1, §2

[3] = target: T3, KDR/Flk-1 on PAE-KDR cells (Homo sapiens, UniProt P35968); assay: Inhibition of 125I-VEGF165 binding to PAE-KDR cells; parameters: species or system porcine endothelial cells transfected to express KDR/Flk-1
T3 construct: expressed in transfected cells; host or cells: porcine endothelial cells (PAE), gift of Dr. Claesson-Welsh
T3 sequence (P35968 20-1356): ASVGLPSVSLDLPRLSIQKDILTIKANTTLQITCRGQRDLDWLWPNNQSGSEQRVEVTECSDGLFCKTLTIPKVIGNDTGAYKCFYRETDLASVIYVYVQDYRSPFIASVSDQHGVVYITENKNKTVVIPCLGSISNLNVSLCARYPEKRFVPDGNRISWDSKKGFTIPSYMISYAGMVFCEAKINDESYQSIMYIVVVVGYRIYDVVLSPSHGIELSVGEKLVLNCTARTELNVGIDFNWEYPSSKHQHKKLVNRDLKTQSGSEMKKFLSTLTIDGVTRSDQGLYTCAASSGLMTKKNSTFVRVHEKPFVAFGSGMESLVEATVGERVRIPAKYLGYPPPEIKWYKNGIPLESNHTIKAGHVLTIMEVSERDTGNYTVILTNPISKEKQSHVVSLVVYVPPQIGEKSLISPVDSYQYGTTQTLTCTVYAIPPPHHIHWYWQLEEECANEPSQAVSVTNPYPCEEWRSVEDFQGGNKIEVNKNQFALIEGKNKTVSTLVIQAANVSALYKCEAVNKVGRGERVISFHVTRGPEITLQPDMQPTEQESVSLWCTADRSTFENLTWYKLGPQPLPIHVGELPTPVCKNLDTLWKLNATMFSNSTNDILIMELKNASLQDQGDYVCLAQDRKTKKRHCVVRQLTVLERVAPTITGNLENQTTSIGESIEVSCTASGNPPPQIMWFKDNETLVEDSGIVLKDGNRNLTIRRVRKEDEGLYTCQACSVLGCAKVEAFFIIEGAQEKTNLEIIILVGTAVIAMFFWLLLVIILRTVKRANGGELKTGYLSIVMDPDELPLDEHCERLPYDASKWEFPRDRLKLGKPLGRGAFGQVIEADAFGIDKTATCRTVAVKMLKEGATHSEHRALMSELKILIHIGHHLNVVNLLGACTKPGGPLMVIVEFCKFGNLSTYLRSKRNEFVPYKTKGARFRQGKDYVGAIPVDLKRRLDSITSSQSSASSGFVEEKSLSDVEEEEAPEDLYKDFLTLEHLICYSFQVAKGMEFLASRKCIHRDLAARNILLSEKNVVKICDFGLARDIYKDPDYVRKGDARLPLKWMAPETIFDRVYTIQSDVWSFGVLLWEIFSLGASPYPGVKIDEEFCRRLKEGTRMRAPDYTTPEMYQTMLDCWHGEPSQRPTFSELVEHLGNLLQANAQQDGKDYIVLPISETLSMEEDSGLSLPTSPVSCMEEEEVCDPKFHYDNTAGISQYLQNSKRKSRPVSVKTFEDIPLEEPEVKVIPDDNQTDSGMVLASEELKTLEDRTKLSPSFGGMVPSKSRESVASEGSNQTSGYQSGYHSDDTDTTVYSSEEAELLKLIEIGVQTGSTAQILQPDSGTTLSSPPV
Method: as §1
Human umbilical vein endothelial cells (HUVEC) were obtained from the American Type Culture Collection (ATCC) (Rockville, Md.) and grown on gelatin-coated dishes in M-199 medium containing 20% fetal calf serum (FCS) and a mixture of glutamine, penicillin, and streptomycin (GPS). Basic FGF (1 nglml) was added to the culture medium every other day. Porcine endothelial cells (PAE), parental and transfected to express KDRElk-1 (PAE-KDR), were kindly provided by Dr. Lema Claesson-Welsh and grown in F12 medium containing 10% FCS and GPS as described (Waltenberger, et al., J. Biol. Chem., 269,26988-26995 (1994)). MDAMB-231 (231) cells were obtained from ATCC and grown in Bulbecoo's modified Eagle's medium containing 10% FCS and GPS.
as §2

[4] = tested on: VEGF165-induced proliferation of HUVEC; assay: Inhibition of VEGF165-stimulated HUVEC proliferation; format: cell-based, human; details: even at 25 ug/ml
Method: (§3) FIG. 6. GST-Ex 7+8 fusion protein inhibits VEGF165-stimulated HUVEC proliferation. HUVEC were cultured in 96-well dishes (5,000 cell/well) as in FIG. 2. Increasing concentrations of VEGF165 (open circles), together with 15 ug/ml GST-Ex 7+8 (closed circles) or 25 ug/ml GST (squares), were added to the medium, and the cells were incubated for 4 more days. DNA synthesis was measured in HUVEC as described in FIG. 2. The results represent the average counts of three wells, and the standard deviations were determined.
FIG. 7. GST-Ex 7+8 fusion protein inhibits VEGF165 and VEGF121-stimulated HUVEC proliferation. Increasing concentration of VEGF165 (circles) or VEGF121 (square) with 15 ug/ml GST-Ex 7+8 (closed symbols) or without GST-Ex 7+8 (open symbols) were added to HUVEC, and [*H]thymidine incorporation into the DNA was measured as in FIG. 2. The results represent the average counts of three wells and the standard deviations were determined.
(§4) HUVEC were seeded in gelatin-coated 96-well dishes at 4,000 cells/200 Ul/well in M-199 containing 5% FCS and GPS. After 24 H, VEGF isoforms and VEGF exon 7-GST fusion proteins were added to the wells at the same time. The cells were incubated for 72 h, and [3H]thymidine (1 pC/ml) was added for 10-12 h. The medium was aspirated, and the cells were trypsinized and harvested by an automatic cell harvester (TOMTEC) and loaded onto Filtermats (Wallac). The Filtermats were scanned and cpm were determined by a MicroBeta counter (Wallac). The results represent the average of samples assayed in triplicate, and the standard derivations were determined. All experiments were repeated at least three times and similar results were obtained.

HUVEC = HUVEC proliferation ([3H]thymidine incorporation) in response to VEGF isoforms; format: cell-based, human
Method: FIG. 2. HUVEC proliferation in response to VEGF165 and VEGF121 HUVEC were cultured in 96-well dishes (5,000 cell/well) for 24 h. Increasing amounts of VEGF165 (closed circles) or VEGF121 (open circles) were added to the medium, and the cells were incubated for 3 more days. DNA synthesis based on the incorporation of [3H] thymidine into HUVEC DNA was measured as described in the Examples. The results represent the average counts in three wells, and the standard deviations were determined.
as §3, §4

VEGF165R on 231 cells [5] = target: T2, VEGF165R on 231 cells; details: Soker et al., J. Biol. Chem. 271, 5761-5767 (1996); cited from earlier work
VEGF165R = VEGF165R (Homo sapiens, UniProt O14786); assay: Direct binding/cross-linking of 125I-GST-Ex 7 to HUVEC: VEGF165R; parameters: HUVEC, which express both KDR/Flk-1 and VEGF165R; endogenous in cells; host or cells: HUVEC (ATCC); details: cross-linking, 1 ug/ml heparin, FIG. 1 lane 3; listed as exon 7 fusion protein
VEGF165R, sequence (O14786 22-923): as the sequence (O14786 22-923) above
Method: (§5) FIG. 1. Cross-linking of 1 ^125I-VEGF165, ^125I-VEGF121 and ^125I-GST-EX 7 to HUVEC. ^125I-VEGF165 (5 ng/ml) (lane 1) or ^125I-VEGF121 (10 ng/ml) (lane 2) or ^125I-GST-EX 7 (50 nglml) (lane 3) were bound to subconfluent cultures of HUVEC in 6-cm dishes. The binding was carried out in the presence of 1 ug/ml heparin. At the end of a 2-H incubation, each ^125I-VEGF isoform was chemically cross-linked to the cell surface. The cells were lysed and proteins were resolved by 6% SDS-PAGE. The polyacrylamide gel was dried and exposed to x-ray film.
as §2

KDR/Flk-1 = KDR/Flk-1 (Homo sapiens, UniProt P35968); assay: Direct binding/cross-linking of 125I-GST-Ex 7 to HUVEC: KDR/Flk-1; parameters: HUVEC, which express both KDR/Flk-1 and VEGF165R; endogenous in cells; host or cells: HUVEC (ATCC); details: cross-linking, 1 ug/ml heparin, FIG. 1 lane 3; listed as exon 7 fusion protein
KDR/Flk-1, sequence (P35968 20-1356): as the sequence (P35968 20-1356) above
Method: as §5, §2

[6] = control GST protein, even at 20 μg/ml

In the case of “GST-Ex 7d-(1-10): GST-exon 7 fusion protein with the first 10 N-terminal amino acids of exon 7 deleted (HLFVQDPQTCKCSCKNTDSRCKARQLELNERTCRC; cysteine pairing not given here; also: GST fusion protein, side of fusion not given here)”, the “inhibitory activity on 125I-VEGF165 binding to HUVEC after deletion in exon 7, versus GST-Ex 7 (in words)” value ([1]; FIG. 5, increasing concentrations) is reported as “did not reduce the inhibitory activity”.

With “GST protein: glutathione S-transferase alone, control protein prepared in a similar way [reference compound]” the “effect of GST alone on 125I-VEGF165 binding to HUVEC (in words)” value [1, 6] was “no significant effect; also recorded: did not inhibit”, the “effect of GST alone on 125I-VEGF165 binding to 231 cells (in words)” value (VEGF165R on 231 cells [2]; [6]) was “no significant effect; also recorded: did not inhibit” and the “effect of GST alone on 125I-VEGF165 binding to PAE-KDR cells (in words)” value [3, 6] was “no significant effect; also recorded: did not inhibit”. For the same molecule, the “inhibition of HUVEC proliferation by GST alone (in words)” value [4] was “did not inhibit”.

For “VEGF165: human recombinant vascular endothelial growth factor 165 isoform produced in Sf-21 insect cells”, the “increase in the proliferation rate of HUVEC” value (HUVEC; 1-5 ng/ml VEGF165, FIG. 6) was 5.5 fold, the “concentration at which the proliferation increase peaks” value (HUVEC; FIG. 6) was 2.5 ng/mL and the “concentration for maximal stimulation of DNA synthesis” value (HUVEC; HUVEC, FIG. 2) was 4 ng/mL. For the same molecule, the “increase in HUVEC proliferation over control at maximal stimulation” value (HUVEC; HUVEC, FIG. 2) was 8 fold and the “concentration for half-maximal stimulation of DNA synthesis” value (HUVEC; HUVEC, [3H]thymidine incorporation, FIG. 2) was 1 ng/mL.

For “GST-Ex 7: GST fusion protein with the entire 44 amino acid VEGF exon 7-encoded domain plus first cysteine residue of exon 8”, the “inhibition of 125I-VEGF165 binding to HUVEC” value ([1]; 2 ug/ml fusion protein, FIG. 5) was 80%, the “inhibition of 125I-VEGF165 binding to HUVEC” value ([1]; 125I-VEGF165 5 ng/ml, increasing concentrations of fusion protein, FIG. 3A) was 85-95% and the “inhibition of 125I-VEGF165 binding to HUVEC compared with GST-Ex 7+8 (in words)” value ([1]; data not shown) was “comparable to that of GST-Ex 7+8”. The “inhibition of 125I-VEGF165 binding to 231 cells” value (VEGF165R on 231 cells [2]; 125I-VEGF165 5 ng/ml, increasing concentrations of fusion protein, FIG. 3B) was 98%, the “inhibition of 125I-VEGF165 binding to 231 cells compared with GST-Ex 7+8 (in words)” value (VEGF165R on 231 cells [2]; data not shown) was “comparable to that of GST-Ex 7+8” and the “inhibition of 125I-VEGF165 binding to PAE-KDR cells (in words)” value ([3]; 125I-VEGF165 5 ng/ml, FIG. 3C) was “did not, however, inhibit at all”. The “direct binding to VEGF165R on 231 cells (in words)” value (VEGF165R on 231 cells [5]) was “binds directly”, the “direct binding to VEGF165R on HUVEC (in words)” value (VEGF165R) was “binds directly; also recorded: could bind” and the “direct binding to KDR/Flk-1 on HUVEC (in words)” value (KDR/Flk-1) was “not and does not bind directly”.

B1: VEGF121: human recombinant vascular endothelial growth factor 121 isoform produced in Sf-21 insect cells (protein)
chain: APMAEGGGQNHHEVVKFMDVYQRSYCHPIETLVDIFQEYPDEIEYIFKPSCVPLMRCGGCCNDEGLECVPTEESNITMQIMRIKPHQGQHIGEMSFLQHNKCECRPKKDRARQEKCDKPRR
In the case of B1, the “concentration for maximal stimulation of DNA synthesis” value (HUVEC; HUVEC, FIG. 2) is reported as 20 ng/mL and the “increase in HUVEC proliferation over control at maximal stimulation” value (HUVEC; HUVEC, FIG. 2) is reported as 4 fold.
